Data reported in the RNAGym collection of RNA variant scans (doi:10.7554/elife.90254).

B1: LINE1-full (parent)
chain: UACGUAGGUGGUUUUCCCCUGAUAGUGCUAAGGGGGCCUGGAAGUUUGGACUGGGCAGAGCUCAACACAGCGUGGCAAAGUGGCUGUGGCUAGACUGCCUCUCUGGAUUCCUCGUCACUCAGCAGGGCAUCUCUGAGAGAAAUGCC

Variants of: B1
Test: self-cleavage, relative activity (ratio to wild type); higher = more cleavage; in vitro, sequencing; the parent is a self-cleaving ribozyme

First: A77C U112C
Second: U52A U91A
The self-cleavage of the first is higher: 1.84 for the first, 0.63 for the second.

Going from A69G C118A to U15C U45C, the self-cleavage rises from 0.51 to 1.55.

Compared with G4A A31G, U9C A77G is higher in self-cleavage: 0.6 for the first, 1.92 for the second.

Compared with C66U A69G, G53U U104C is higher in self-cleavage: 0.06 for the first, 2.38 for the second.

First: U14A A24U
Second: G25C A69G
The self-cleavage of the first is higher: 0.77 for the first, 0.14 for the second.

Going from A65G U85A to G25A C38U, the self-cleavage rises from 0.07 to 0.64.

Going from A69U G89A to U46A A67G, the self-cleavage rises from 0.04 to 0.22.

Going from A43G C118U to A6U A124U, the self-cleavage rises from 1.19 to 1.51.

First: A50G U87C
Second: C111A A117G
The self-cleavage of the first is lower: 0.14 for the first, 1.69 for the second.

Going from G8U C37G to U39A U109C, the self-cleavage falls from 1.18 to 1.1.

Going from U47G A140U to U9C U52A, the self-cleavage rises from 0.9 to 2.31.

First: A31G G139U
Second: U26G G34A
The self-cleavage of the first is higher: 1.67 for the first, 0.93 for the second.

First: G4A A67G
Second: C3A A31G
The self-cleavage of the first is lower: 0.62 for the first, 0.87 for the second.

Compared with G33A G55A, C37A U39C is higher in self-cleavage: 0.73 for the first, 1.35 for the second.

Going from A65G U119C to A69U G97A, the self-cleavage falls from 0.04 to 0.03.

Going from U20A C90U to A43U U73C, the self-cleavage rises from 0.02 to 1.79.

First: U5A U115C
Second: U15A G35U
The self-cleavage of the first is lower: 0.5 for the first, 1.16 for the second.

Compared with A30G U96C, U9A U62A is lower in self-cleavage: 0.45 for the first, 0.12 for the second.

Compared with U47A C128U, A59U C128U is lower in self-cleavage: 1.39 for the first, 1.02 for the second.

Compared with U81A U96C, U46C G126A is higher in self-cleavage: 0.13 for the first, 0.59 for the second.

Compared with G8U U130C, U5G A50U is lower in self-cleavage: 1.66 for the first, 0.38 for the second.

Going from A77G U109C to U20A U143C, the self-cleavage falls from 1.51 to 0.9.

Compared with U46C A57G, A50U U91A is lower in self-cleavage: 1.04 for the first, 0.34 for the second.

Compared with C19U G34A, A124U U134C is higher in self-cleavage: 0.75 for the first, 1.51 for the second.

Compared with C90G A136U, U13C A77G is higher in self-cleavage: 0.04 for the first, 1.85 for the second.

Compared with A57U A142U, U87C U115A is higher in self-cleavage: 0.08 for the first, 0.17 for the second.

Compared with U20A C63U, A117C A121U is higher in self-cleavage: 0.45 for the first, 2.02 for the second.

First: U5C U104C
Second: A31G U91A
The self-cleavage of the first is higher: 1.11 for the first, 0.3 for the second.

First: U73G U119C
Second: C51U U91A
The self-cleavage of the first is higher: 1.57 for the first, 0.84 for the second.

Compared with G34C A140C, A117G A142G is lower in self-cleavage: 1.79 for the first, 1.25 for the second.

Compared with U13G A69U, A22G C63A is lower in self-cleavage: 0.39 for the first, 0.05 for the second.

Going from U46A G125C to C113U U119A, the self-cleavage falls from 1.35 to 0.82.

Compared with G58U A69G, A42U U73C is higher in self-cleavage: 0.07 for the first, 1.56 for the second.

Compared with G21A U62C, G25U A30G is higher in self-cleavage: 0.05 for the first, 1.27 for the second.

First: A92U U108C
Second: C68A U87A
The self-cleavage of the first is higher: 1.2 for the first, 0.01 for the second.

First: C17G A59U
Second: C71G
The self-cleavage of the first is higher: 0.55 for the first, 0.27 for the second.

First: U96A G135A
Second: U39G U96C
The self-cleavage of the first is lower: 0.03 for the first, 0.11 for the second.

First: U47C G105A
Second: U62C A117C
The self-cleavage of the first is higher: 1.45 for the first, 0.03 for the second.

Compared with U20A A43C, G27A U143C is higher in self-cleavage: 0.84 for the first, 1.38 for the second.

Going from C113U C128U to G74A U109C, the self-cleavage falls from 1.17 to 0.7.

First: U9C U39C
Second: A31U U73A
The self-cleavage of the first is lower: 1.14 for the first, 1.33 for the second.

First: A77U U112C
Second: A77U A121U
The self-cleavage of the first is higher: 1.29 for the first, 1.27 for the second.

Compared with U47A U52A, U130C U134G is lower in self-cleavage: 1.84 for the first, 0.54 for the second.

First: C61A U102C
Second: G35C U62C
The self-cleavage of the first is lower: 0.05 for the first, 0.06 for the second.

First: A50G G126A
Second: U46C U119A
The self-cleavage of the first is lower: 0.41 for the first, 1.26 for the second.

Going from U23C U115A to U91C U112C, the self-cleavage falls from 1.23 to 0.59.

First: U1C U52C
Second: U9A C99A
The self-cleavage of the first is higher: 1.38 for the first, 0.67 for the second.

First: A64G U143A
Second: C113A U132C
The self-cleavage of the first is lower: 0.24 for the first, 1.44 for the second.

Going from U13C A22U to A65G U104A, the self-cleavage falls from 1.22 to 0.05.

Compared with U115A C128U, U12A A94G is lower in self-cleavage: 1.23 for the first, 0.55 for the second.

Going from A69U U130C to U9C U20A, the self-cleavage rises from 0.05 to 0.95.

Compared with A57G C99U, U73C G106A is higher in self-cleavage: 0.13 for the first, 1.7 for the second.

First: A42G C120U
Second: G40A A78G
The self-cleavage of the first is lower: 0.67 for the first, 0.77 for the second.

Going from U52G A59G to A79U A142G, the self-cleavage rises from 0.34 to 2.33.

First: U62A U91C
Second: U20G U73C
The self-cleavage of the first is lower: 0.04 for the first, 1.39 for the second.

Going from A42G A92G to U96A U100C, the self-cleavage falls from 0.15 to 0.08.

First: U39A G97A
Second: U52A G54C
The self-cleavage of the first is lower: 0.12 for the first, 0.43 for the second.

Going from U13C C90U to A6U U26C, the self-cleavage rises from 0.04 to 0.94.

First: G53U A140C
Second: G72A A124G
The self-cleavage of the first is higher: 0.8 for the first, 0.52 for the second.

First: U85A U143C
Second: U130C C133A
The self-cleavage of the first is lower: 0.11 for the first, 1.61 for the second.

Compared with A2G U62C, U15C A59G is higher in self-cleavage: 0.09 for the first, 0.1 for the second.

Compared with G74A A124U, A50G U134A is lower in self-cleavage: 1.22 for the first, 0.68 for the second.

Going from A2U U12A to A30C U96C, the self-cleavage rises from 0.31 to 0.39.

First: U20G A129C
Second: U39C G106U
The self-cleavage of the first is higher: 1.95 for the first, 0.4 for the second.

First: A64G A65G
Second: A64U A129U
The self-cleavage of the first is lower: 0.11 for the first, 0.46 for the second.

Going from A42U U102C to U47C U109A, the self-cleavage rises from 0.89 to 1.6.

First: G32C U109A
Second: A64G C133U
The self-cleavage of the first is higher: 1.56 for the first, 0.06 for the second.

Compared with U14A U47C, U9A U109C is higher in self-cleavage: 1.14 for the first, 1.34 for the second.

First: C51U U62C
Second: U85A U134C
The self-cleavage of the first is lower: 0.05 for the first, 0.13 for the second.

Going from U26C A67U to U20A U96A, the self-cleavage falls from 0.06 to 0.05.

First: A43U U134C
Second: A92G U102C
The self-cleavage of the first is higher: 1.26 for the first, 0.11 for the second.

Compared with U23C A140U, U23C A140G is lower in self-cleavage: 1.29 for the first, 1.28 for the second.

Compared with U112C G139A, U62A U102A is lower in self-cleavage: 1.36 for the first, 0.01 for the second.

Compared with U13C C131A, U91A A121G is lower in self-cleavage: 1.28 for the first, 0.84 for the second.

Going from U45A A59U to U104A A136G, the self-cleavage rises from 0.6 to 1.39.

Compared with U100C G139U, G7A U26C is lower in self-cleavage: 2.03 for the first, 2 for the second.

First: U23C U26G
Second: G35U A129G
The self-cleavage of the first is lower: 1.45 for the first, 1.57 for the second.

Compared with A69G A138G, A6G G40A is higher in self-cleavage: 0.56 for the first, 0.84 for the second.

Compared with U5C A141G, C37G A57U is lower in self-cleavage: 0.92 for the first, 0.1 for the second.

First: G105U U119C
Second: G40U
The self-cleavage of the first is higher: 1.92 for the first, 1 for the second.

First: U12G U112C
Second: C38A A140U
The self-cleavage of the first is lower: 1.01 for the first, 1.1 for the second.

Compared with U14C A77G, U20C U62G is lower in self-cleavage: 1.73 for the first, 0.03 for the second.

Compared with U87A G106A, A107G U109C is higher in self-cleavage: 0.06 for the first, 1.14 for the second.

With G72U A107C the self-cleavage was 2.15.
